B1: PAP_(133-152) (peptide)
peptide: NPILLWQPIPVHTVPLSEDQ
B2: PAP_(173-192) (peptide)
peptide: KSEEFQKRLHPYKDFIATLG

Tests used:
[1] = biological target: HLA-DR DRB1*1302 (human); experiment: radioligand binding
[2] = biological target: HLA-DR DRB1*0901 (human); experiment: radioligand binding
[3] = biological target: HLA-DR DRB5*0101 (human); experiment: radioligand binding
[4] = biological target: HLA-DR DRB1*0301 (human); experiment: radioligand binding
[5] = biological target: HLA-DR DRB1*0404 (human); experiment: radioligand binding
[6] = biological target: HLA-DR DRB1*0405 (human); experiment: radioligand binding
[7] = biological target: HLA-DR DRB1*1501 (human); experiment: radioligand binding
[8] = biological target: HLA-DR DRB4*0101 (human); experiment: radioligand binding
[9] = biological target: HLA-DR DRB1*0401 (human); experiment: radioligand binding
[10] = biological target: HLA-DR DRB1*1101 (human); experiment: radioligand binding
[11] = test system: CD4 and CD8 T cells from men with GP; settings: men with granulomatous prostatitis; cited from earlier work
[12] = test system: CD4 lymphocytes; settings: CP/CPPS; cited from earlier work
[13] = biological target: HLA-DR DRB1*0101 (human); experiment: radioligand binding
[14] = biological target: HLA-DR DRB1*0802 (human); experiment: radioligand binding
[15] = biological target: HLA-DR DRB1*0701 (human); experiment: radioligand binding
[16] = test system: men with chronic prostatitis/chronic pelvic pain syndrome; settings: CP/CPPS; cited from earlier work

| Molecule | IC50 [1] [nM] | IC50 [2] [nM] | IC50 [3] [nM] | IC50 [4] [nM] | IC50 [5] [nM] | IC50 [6] [nM] | IC50 [7] [nM] | IC50 [8] [nM] | IC50 [9] [nM] | IC50 [10] [nM] | recognition by CD4 and CD8 T cells in GP (in words) [11] | recognition by CD4 lymphocytes (in words) [12] | IC50 [13] [nM] | IC50 [14] [nM] | IC50 [15] [nM] | improvement of symptoms versus placebo (in words) [16] |
| --- | --- | --- | --- | --- | --- | --- | --- | --- | --- | --- | --- | --- | --- | --- | --- | --- |
| PSA_(171-190) (peptide) | 997 | > 20000 | > 20000 | 961 | 219 | 719 | 351 | 880 | 117 | > 20000 |  |  |  |  |  |  |
| PSA: prostate specific antigen, normal self prostatic protein |  |  |  |  |  |  |  |  |  |  | CD4 and CD8 T cells from men with GP can recognize PSA | can be recognized by CD4 lymphocytes |  |  |  |  |
| PSA_(221-240) (peptide) | > 20000 | 786 |  | > 20000 | 3.3 | 67 | 25 |  | 93 |  |  |  | 108 | 646 | 428 |  |
| O=C(O)c1cn(C2CC2)c2cc(N3CCNCC3)c(F)cc2c1=O [ciprofloxacin] |  |  |  |  |  |  |  |  |  |  |  |  |  |  |  | no more effective than placebo at improving symptoms |
| B1 | 339 |  |  | > 20000 | 28 | 164 | 1.5 | 82 | 39 | 964 |  |  | 25 |  |  |  |
| B2 | > 20000 | 93 | 24 | > 20000 | 374 | 211 | 4 |  | 296 | 28 |  |  | 25 |  | 132 |  |

Reference: article PMC2760636 (The Journal of urology, 2009)
